Test results reported in patent US10487121B2, “D-peptide inhibitors of HIV entry and methods of use” (priority 2016, dated 2019).
Like-named read-outs stand apart in the source and are kept apart here.

Test: Rodent pharmacokinetics of PIE12-trimer and conjugates (Table 3 protocol)
Type: in vivo, Sprague Dawley rats
Details: rats; for bioavailability: Sprague Dawley; for bioavailability / AUC(0-inf) / C0 / clearance / half-life / Vd / Cmax / Tmax: rat; for AUC(0-inf) / C0 / clearance / half-life / Vd / Cmax / Tmax: in vivo; for clearance: read-out: Cl (obs) (converted); for half-life: read-out: T1/2 (converted); for Vd: read-out: Vz (obs)
Description: At each timepoint, plasma was obtained using lithium heparin.
Samples were spiked with an internal standard then precipitated with two volumes of 98% acetonitrile/2% Formic acid. Supernatants were analyzed by LC/MS/MS using an Agilent HPLC system (Waters X-Bridge BEH C18 column) paired to an AB Sciex API 3000 triple-quad mass spectrometer using MRM methods. Lipid conjugates required lower source temperatures (300° C. vs 500° C.) for improved reproducibility.

Structure (SMILES) | bioavailability (SC, 1.0 mg/kg, plasma, median) [%] | AUC(0-inf) (IV, 1.0 mg/kg, plasma, median) [µM·h] | C0 (IV, 1.0 mg/kg, plasma, median) [nM] | clearance (IV, 1.0 mg/kg, plasma, median) [mL/min/kg] | half-life (IV, 1.0 mg/kg, plasma, median) [h] | Vd (IV, 1.0 mg/kg, plasma, median) [L/kg] | AUC(0-inf) (SC, 1.0 mg/kg, plasma, median) [µM·h] | Cmax (SC, 1.0 mg/kg, plasma, median) [nM] | Tmax (SC, 1.0 mg/kg, plasma, median) [h] | half-life (SC, 1.0 mg/kg, plasma, median) [h] | other results
CCCCCCCCCCCCCCCCCCSC1CC(=O)N(CCC(=O)NCCOCCOCCOCCOCCOCCOCCOCCOCCOCCOCCOCCOCCOCCOCCOCCOCCOCCOCCOCCOCCOCCOCCOCCOCCC(=O)NC(COCCC(=O)NCCOCCOCCOCCOCCC(=O)NCCCC[C@@H](NC(=O)CNC(=O)[C@@H](CC(C)C)NC(=O)[C@@H](CCC(=O)O)NC(=O)[C@H]2CSSC[C@@H](NC(=O)[C@H]3CCCN3C(=O)[C@@H](Cc3c[nH]cn3)NC(C)=O)C(=O)N[C@H](CC(=O)O)C(=O)N[C@H](Cc3ccc(O)cc3)C(=O)N3CCC[C@@H]3C(=O)N[C@H](CCC(=O)O)C(=O)N[C@H](Cc3c[nH]c4ccccc34)C(=O)N[C@H](CCC(N)=O)C(=O)N[C@H](Cc3c[nH]c4ccccc34)C(=O)N[C@H](CC(C)C)C(=O)N2)C(N)=O)(COCCC(=O)NCCOCCOCCOCCOCCC(=O)NCCCC[C@@H](NC(=O)CNC(=O)[C@@H](CC(C)C)NC(=O)[C@@H](CCC(=O)O)NC(=O)[C@H]2CSSC[C@@H](NC(=O)[C@H]3CCCN3C(=O)[C@@H](Cc3c[nH]cn3)NC(C)=O)C(=O)N[C@H](CC(=O)O)C(=O)N[C@H](Cc3ccc(O)cc3)C(=O)N3CCC[C@@H]3C(=O)N[C@H](CCC(=O)O)C(=O)N[C@H](Cc3c[nH]c4ccccc34)C(=O)N[C@H](CCC(N)=O)C(=O)N[C@H](Cc3c[nH]c4ccccc34)C(=O)N[C@H](CC(C)C)C(=O)N2)C(N)=O)COCCC(=O)NCCOCCOCCOCCOCCC(=O)NCCCC[C@@H](NC(=O)CNC(=O)[C@@H](CC(C)C)NC(=O)[C@@H](CCC(=O)O)NC(=O)[C@H]2CSSC[C@@H](NC(=O)[C@H]3CCCN3C(=O)[C@@H](Cc3c[nH]cn3)NC(C)=O)C(=O)N[C@H](CC(=O)O)C(=O)N[C@H](Cc3ccc(O)cc3)C(=O)N3CCC[C@@H]3C(=O)N[C@H](CCC(=O)O)C(=O)N[C@H](Cc3c[nH]c4ccccc34)C(=O)N[C@H](CCC(N)=O)C(=O)N[C@H](Cc3c[nH]c4ccccc34)C(=O)N[C@H](CC(C)C)C(=O)N2)C(N)=O)C1=O (stereo partly shown) [C18-PIE12-trimer] | 93 | 0.766 | 900 | 2.5 | 1.05 | 0.23 | 0.713 | 196 | 2 | 1.39 | 
CCCCCCCCCCCCCCCC(=O)N[C@H](CSC1CC(=O)N(CCC(=O)NCCOCCOCCOCCOCCOCCOCCOCCOCCOCCOCCOCCOCCOCCOCCOCCOCCOCCOCCOCCOCCOCCOCCOCCOCCC(=O)NC(COCCC(=O)NCCOCCOCCOCCOCCC(=O)NCCCC[C@@H](NC(=O)CNC(=O)[C@@H](CC(C)C)NC(=O)[C@@H](CCC(=O)O)NC(=O)[C@H]2CSSC[C@@H](NC(=O)[C@H]3CCCN3C(=O)[C@@H](Cc3c[nH]cn3)NC(C)=O)C(=O)N[C@H](CC(=O)O)C(=O)N[C@H](Cc3ccc(O)cc3)C(=O)N3CCC[C@@H]3C(=O)N[C@H](CCC(=O)O)C(=O)N[C@H](Cc3c[nH]c4ccccc34)C(=O)N[C@H](CCC(N)=O)C(=O)N[C@H](Cc3c[nH]c4ccccc34)C(=O)N[C@H](CC(C)C)C(=O)N2)C(N)=O)(COCCC(=O)NCCOCCOCCOCCOCCC(=O)NCCCC[C@@H](NC(=O)CNC(=O)[C@@H](CC(C)C)NC(=O)[C@@H](CCC(=O)O)NC(=O)[C@H]2CSSC[C@@H](NC(=O)[C@H]3CCCN3C(=O)[C@@H](Cc3c[nH]cn3)NC(C)=O)C(=O)N[C@H](CC(=O)O)C(=O)N[C@H](Cc3ccc(O)cc3)C(=O)N3CCC[C@@H]3C(=O)N[C@H](CCC(=O)O)C(=O)N[C@H](Cc3c[nH]c4ccccc34)C(=O)N[C@H](CCC(N)=O)C(=O)N[C@H](Cc3c[nH]c4ccccc34)C(=O)N[C@H](CC(C)C)C(=O)N2)C(N)=O)COCCC(=O)NCCOCCOCCOCCOCCC(=O)NCCCC[C@@H](NC(=O)CNC(=O)[C@@H](CC(C)C)NC(=O)[C@@H](CCC(=O)O)NC(=O)[C@H]2CSSC[C@@H](NC(=O)[C@H]3CCCN3C(=O)[C@@H](Cc3c[nH]cn3)NC(C)=O)C(=O)N[C@H](CC(=O)O)C(=O)N[C@H](Cc3ccc(O)cc3)C(=O)N3CCC[C@@H]3C(=O)N[C@H](CCC(=O)O)C(=O)N[C@H](Cc3c[nH]c4ccccc34)C(=O)N[C@H](CCC(N)=O)C(=O)N[C@H](Cc3c[nH]c4ccccc34)C(=O)N[C@H](CC(C)C)C(=O)N2)C(N)=O)C1=O)C(=O)O (stereo partly shown) [Palm-PIE12-trimer] |  |  |  |  |  |  |  |  |  |  | AUC(0-inf) (IV, 1.2 mg/kg, plasma, median): 2.24 µM·h; C0 (IV, 1.2 mg/kg, plasma, median): 2240 nM; clearance (IV, 1.2 mg/kg, plasma, median): 1.02 mL/min/kg; half-life (IV, 1.2 mg/kg, plasma, median): 1.83 h; Vd (IV, 1.2 mg/kg, plasma, median): 0.14 L/kg; AUC(0-inf) (SC, 1.2 mg/kg, plasma, median): 2.31 µM·h; Cmax (SC, 1.2 mg/kg, plasma, median): 585 nM; Tmax (SC, 1.2 mg/kg, plasma, median): 1 h; half-life (SC, 1.2 mg/kg, plasma, median): 2.23 h; increase of IV half-life vs PIE12-trimer (IV): > 3 fold; reduction of clearance vs PIE12-trimer (IV): ~14 fold; bioavailability upon SC dosing, in words (SC): fully bioavailable; F (SC, 1.2 mg/kg, plasma, median): 103%; extension of SC (apparent) half-life vs PIE12-trimer (SC, terminal phase elimination): ~3 fold
CCCCCCCCCCCCCCCCSC1CC(=O)N(CCC(=O)NCCOCCOCCOCCOCCOCCOCCOCCOCCOCCOCCOCCOCCOCCOCCOCCOCCOCCOCCOCCOCCOCCOCCOCCOCCC(=O)NC(COCCC(=O)NCCOCCOCCOCCOCCC(=O)NCCCC[C@@H](NC(=O)CNC(=O)[C@@H](CC(C)C)NC(=O)[C@@H](CCC(=O)O)NC(=O)[C@H]2CSSC[C@@H](NC(=O)[C@H]3CCCN3C(=O)[C@@H](Cc3c[nH]cn3)NC(C)=O)C(=O)N[C@H](CC(=O)O)C(=O)N[C@H](Cc3ccc(O)cc3)C(=O)N3CCC[C@@H]3C(=O)N[C@H](CCC(=O)O)C(=O)N[C@H](Cc3c[nH]c4ccccc34)C(=O)N[C@H](CCC(N)=O)C(=O)N[C@H](Cc3c[nH]c4ccccc34)C(=O)N[C@H](CC(C)C)C(=O)N2)C(N)=O)(COCCC(=O)NCCOCCOCCOCCOCCC(=O)NCCCC[C@@H](NC(=O)CNC(=O)[C@@H](CC(C)C)NC(=O)[C@@H](CCC(=O)O)NC(=O)[C@H]2CSSC[C@@H](NC(=O)[C@H]3CCCN3C(=O)[C@@H](Cc3c[nH]cn3)NC(C)=O)C(=O)N[C@H](CC(=O)O)C(=O)N[C@H](Cc3ccc(O)cc3)C(=O)N3CCC[C@@H]3C(=O)N[C@H](CCC(=O)O)C(=O)N[C@H](Cc3c[nH]c4ccccc34)C(=O)N[C@H](CCC(N)=O)C(=O)N[C@H](Cc3c[nH]c4ccccc34)C(=O)N[C@H](CC(C)C)C(=O)N2)C(N)=O)COCCC(=O)NCCOCCOCCOCCOCCC(=O)NCCCC[C@@H](NC(=O)CNC(=O)[C@@H](CC(C)C)NC(=O)[C@@H](CCC(=O)O)NC(=O)[C@H]2CSSC[C@@H](NC(=O)[C@H]3CCCN3C(=O)[C@@H](Cc3c[nH]cn3)NC(C)=O)C(=O)N[C@H](CC(=O)O)C(=O)N[C@H](Cc3ccc(O)cc3)C(=O)N3CCC[C@@H]3C(=O)N[C@H](CCC(=O)O)C(=O)N[C@H](Cc3c[nH]c4ccccc34)C(=O)N[C@H](CCC(N)=O)C(=O)N[C@H](Cc3c[nH]c4ccccc34)C(=O)N[C@H](CC(C)C)C(=O)N2)C(N)=O)C1=O (stereo partly shown) [C16-PIE12-Trimer] | 38 | 1.16 | 1880 | 1.67 | 0.93 | 0.14 | 0.442 | 192 | 1 | 1.18 | 
